Measurements as given in US20260207798A1, “CYCLIC PEPTIDES AS PET IMAGING AGENTS OF GRANZYME B” (priority 2022, published 2026).
Blank lines part the entries; values can stand above or below the molecule they belong to. Bridge positions count the residues as written; N and C are the ends. Square brackets hold non-standard residues; d marks the D form. NOTA‑1 = 1,4,7-triazacyclononane-N,N',N''-triacetic acid phenyl thiourea; Pro(trans-4-Ph) = O=C(O)[C@@H]1C[C@@H](c2ccccc2)CN1; Trp(7-Me) = Cc1cccc2c(C[C@H](N)C(=O)O)c[nH]c12; Pro(trans-4-F) = O=C(O)[C@@H]1C[C@@H](F)CN1; Pro(cis-4-F) = O=C(O)[C@@H]1C[C@H](F)CN1; Phe(4-F) = N[C@@H](Cc1ccc(F)cc1)C(=O)O; Phe(4-Me) = Cc1ccc(C[C@H](N)C(=O)O)cc1; Pro(4S-Me) = C[C@@H]1CN[C@H](C(=O)O)C1; Pro(4R-Me) = C[C@H]1CN[C@H](C(=O)O)C1

Experiments:
Human Granzyme B [1] = biological target: T1, Human Granzyme B (Homo sapiens, UniProt P10144); format: in vivo; set-up: Ten million human peripheral blood mononuclear cell (PBMC) were engrafted in immunocompromised NOG (NOD/Shi-scid/IL-2Rγ) mice; endogenous in cells; host or cells: human PBMC (donor-derived) engrafted in NOG mice; conditions: 18F-labeled peptides, i.v., mice, static PET/CT 1 h after injection
T1 sequence (P10144 21-247): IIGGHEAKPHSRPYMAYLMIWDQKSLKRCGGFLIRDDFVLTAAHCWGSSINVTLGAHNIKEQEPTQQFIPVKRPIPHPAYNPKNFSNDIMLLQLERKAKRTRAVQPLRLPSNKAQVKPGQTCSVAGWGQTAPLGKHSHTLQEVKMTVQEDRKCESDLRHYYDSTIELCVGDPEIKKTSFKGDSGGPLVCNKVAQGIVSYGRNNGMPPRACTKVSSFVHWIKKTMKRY
Protocol: Diseased model: Graft versus host disease (GvHD) model was selected to evaluate radiolabeled granzyme-B peptides due to presence of human granzyme-B after onset of disease. Ten million human peripheral blood mononuclear cell (PBMC) were engrafted in immunocompromised NOG (NOD/Shi-scid/IL-2Rγ) mice. Body weight was monitored routinely, once the mice started to lose weight (indication of onset of disease), PET/CT scans were performed. To determine target specificity, NOG mice without human PBMC were used as control. […] Mice were intravenously injected with approximately 150 uCi (35 Ci/mmol) of ^18F-labeled peptides and 45-minute whole body static PET/CT scans were performed 1 h after injection. Attenuation correction was performed using low-dose CT scan.

Human Granzyme B [2] = biological target: T1, Human Granzyme B; assay: Binding of scrambled control peptide to human granzyme-B (method not given); set-up: Ten million human peripheral blood mononuclear cell (PBMC) were engrafted in immunocompromised NOG (NOD/Shi-scid/IL-2Rγ) mice; endogenous in cells; host or cells: human PBMC (donor-derived) engrafted in NOG mice
human Granzyme B [3] = biological target: T2, human Granzyme B (human, UniProt P10144 21-247); assay: SPR, Biacore 8k+, hGranzyme B captured on SA chip, single cycle kinetics, 1:1 model; Compound 86a, observed m/z 912.9
T2 construct: Captured on a Series S Streptavidin chip for SPR; also called hGranzyme B; GzmB
T2 sequence (P10144 21-247 limits assumed): as the sequence (P10144 21-247) above
Protocol: (§1) The kinetics of test peptide binding to human Granzyme B (hGranzyme B) was determined by SPR. All experiments were performed at 25° C. using the Biacore 8k+ instrument (Cytiva, Marlborough, MA). The Biacore 8k+ Insight Evaluation Software Version 3.0 was used to fit the data with a 1:1 binding model to determine the association rate constant kₐ (M⁻¹s⁻¹, where “M” ~equals molar and “s” ~equals seconds) and the dissociation rate constant kd (s⁻¹). These rate constants were used to calculate the equilibrium dissociation constant. KD (M)=kd/kₐ.
(§2) To measure the binding kinetics of peptides of interest, surfaces were prepared by a capture method to a Series S Streptavidin (SA) chip using a 1×HBS-EP+ running buffer (Cytiva). hGranzyme B was diluted to 10 μg/mL in IX HBS-EP+ and flowed over spot 2 of each flow cell on the chip at a flow rate of 10 ul/min for 20 s to achieve a level of capture of ~1100 RU. […] Binding kinetics were measured using single cycle kinetics at 25° C. by injecting 5 concentrations with 3-fold serial dilutions of test peptides from 0.01 μM to 1 μM. […]
(§3) Peptide dilution series included 2 zero concentration points (no compound) which were averaged and subtracted from the peptide concentration injection as DMSO control responses. […] Corrected response data were analyzed using the Biacore 8k+ Evaluation Software Version 3.0 according to the manufacturer. […]

human Granzyme B [4] = biological target: T2, human Granzyme B; assay: SPR, Biacore 8k+, hGranzyme B captured on SA chip, single cycle kinetics, 1:1 model; Compound 62a, observed m/z 914.7
Protocol: as §1, §2, §3

human Granzyme B [5] = biological target: T2, human Granzyme B; assay: SPR, Biacore 8k+, hGranzyme B captured on SA chip, single cycle kinetics, 1:1 model; Compound 42a, observed m/z 944.0
Protocol: as §1, §2, §3

human Granzyme B [6] = biological target: T2, human Granzyme B; assay: SPR, Biacore 8k+, hGranzyme B captured on SA chip, single cycle kinetics, 1:1 model; Compound 69a, observed m/z 912.6
Protocol: as §1, §2, §3

human Granzyme B [7] = biological target: T2, human Granzyme B; assay: SPR, Biacore 8k+, hGranzyme B captured on SA chip, single cycle kinetics, 1:1 model; Compound 83a, observed m/z 913.2
Protocol: as §1, §2, §3

human Granzyme B [8] = biological target: T2, human Granzyme B; assay: SPR, Biacore 8k+, hGranzyme B captured on SA chip, single cycle kinetics, 1:1 model; Compound 41a, observed m/z 912.9
Protocol: as §1, §2, §3

human Granzyme B [9] = biological target: T2, human Granzyme B; assay: SPR, Biacore 8k+, hGranzyme B captured on SA chip, single cycle kinetics, 1:1 model; Compound 66a, observed m/z 912.5
Protocol: as §1, §2, §3

human Granzyme B [10] = biological target: T2, human Granzyme B; assay: cell-based or functional assay
human Granzyme B [11] = biological target: T2, human Granzyme B; assay: SPR, Biacore 8k+, hGranzyme B captured on SA chip, single cycle kinetics, 1:1 model; Compound 38a, observed m/z 914.7
Protocol: as §1, §2, §3

human Granzyme B [12] = biological target: T2, human Granzyme B; assay: SPR, Biacore 8k+, hGranzyme B captured on SA chip, single cycle kinetics, 1:1 model; Compound 40a, observed m/z 915.0
Protocol: as §1, §2, §3

human Granzyme B [13] = biological target: T2, human Granzyme B; assay: SPR, Biacore 8k+, hGranzyme B captured on SA chip, single cycle kinetics, 1:1 model; Compound 25a, observed m/z 905.8
Protocol: as §1, §2, §3

Molecule: *F.Q.W.Q.A.S.N.E.D.D.T.P.F.*C.G.G.K(NOTA-1)·NH2) ({CH2CO}-FQWQASNEDDTPFCGGK(NOTA‑1)-NH2; thioether N-14) [scrambled peptide, 18F-labeled scrambled peptide used as negative control, reference compound]
uptake (SUVmean) in lung, liver and bone, GvHD model versus NOG control (Human Granzyme B [1]): No significant difference was observed between lung, liver, and bone in GvHD model and NOG control
binding to human granzyme-B (Human Granzyme B [2]): minimal/no binding

Molecule: {CH2CO}-FN[Phe(4-Me)]EDQSPDTWQPCG-NH2 (thioether N-14) [Compound 86a]
Kd (human Granzyme B [3]): 579 nM

Molecule: {CH2CO}-FNFEDQSPDTWQ[Pro(trans-4-Ph)]CG-NH2 (thioether N-14) [Compound 42a]
Kd (human Granzyme B [5]): 2.6 nM

Molecule: {CH2CO}-FNFEDQS[Pro(4S-Me)]DTWQPCG-NH2 (thioether N-14) [Compound 69a]
Kd (human Granzyme B [6]): 17.2 nM

Molecule: {CH2CO}-FN[Phe(4-F)]EDQSPDTWQPCG-NH2 (thioether N-14) [Compound 40a]
Kd (human Granzyme B [12]): 1.8 nM

B2: Compound 25a (peptide)
peptide: {CH2CO}-FNFEDQSPDTWQPCG-NH2
modifications: thioether N-14
SMILES: C[C@@H](O)[C@@H]1NC(=O)[C@H](CC(=O)O)NC(=O)[C@@H]2CCCN2C(=O)[C@H](CO)NC(=O)[C@H](CCC(N)=O)NC(=O)[C@H](CC(=O)O)NC(=O)[C@H](CCC(=O)O)NC(=O)[C@H](Cc2ccccc2)NC(=O)[C@H](CC(N)=O)NC(=O)[C@H](Cc2ccccc2)NC(=O)CSC[C@@H](C(=O)NCC(N)=O)NC(=O)[C@@H]2CCCN2C(=O)[C@H](CCC(N)=O)NC(=O)[C@H](Cc2c[nH]c3ccccc23)NC1=O
Human Granzyme B IC50 (fluorogenic substrate enzyme inhibition assay) (human Granzyme B [10]): < 8 nM
Kd (human Granzyme B [13]): 2.8 nM

The next lines start with the values.

Kd (human Granzyme B [4]): 6.7 nM
Molecule: {CH2CO}-FNFEDQS[Pro(cis-4-F)]DTWQPCG-NH2 (thioether N-14) [Compound 62a]

Kd (human Granzyme B [7]): 48 nM
Molecule: {CH2CO}-FNFEDQS[Pro(4R-Me)]DTWQPCG-NH2 (thioether N-14) [Compound 83a]

Kd (human Granzyme B [8]): 2.5 nM
Molecule: {CH2CO}-FNFEDQSPDTWQ[Pro(4S-Me)]CG-NH2 (thioether N-14) [Compound 41a]

Kd (human Granzyme B [9]): 11.1 nM
Molecule: {CH2CO}-FNFEDQSPDT[Trp(7-Me)]QPCG-NH2 (thioether N-14) [Compound 66a]

Human Granzyme B IC50 (fluorogenic substrate enzyme inhibition assay) (human Granzyme B [10]): < 8 nM
Kd (human Granzyme B [11]): 0.7 nM
B1: Compound 38a (peptide)
peptide: {CH2CO}-FNFEDQS[Pro(trans-4-F)]DTWQPCG-NH2
modifications: thioether N-14
SMILES: C[C@@H](O)[C@@H]1NC(=O)[C@H](CC(=O)O)NC(=O)[C@@H]2C[C@@H](F)CN2C(=O)[C@H](CO)NC(=O)[C@H](CCC(N)=O)NC(=O)[C@H](CC(=O)O)NC(=O)[C@H](CCC(=O)O)NC(=O)[C@H](Cc2ccccc2)NC(=O)[C@H](CC(N)=O)NC(=O)[C@H](Cc2ccccc2)NC(=O)CSC[C@@H](C(=O)NCC(N)=O)NC(=O)[C@@H]2CCCN2C(=O)[C@H](CCC(N)=O)NC(=O)[C@H](Cc2c[nH]c3ccccc23)NC1=O
